The target in assay [1] is HLA-B*44:03. Briefly: IEDB peptide-MHC binding, purified MHC/competitive/radioactivity; filed as Kd, often an IC50 or EC50 that approximates it; ≥ and ≤ were set here for values at or beyond the usual limits of such assays.
The target in assay [2] is HLA-B*45:01. Described as above.
Assay [3] deals with HLA-B*18:01. Described as above.
Assay [4] deals with HLA-B*40:01. The assay is described as above.
Assay [5] concerns the target HLA-B*44:02. Described as above.
In assay [6] the target is HLA-B*40:02. The assay is described as above.
Assay [7] addresses HLA-B*15:03. The description is as above.
In assay [8] the target is HLA-A*32:01. The description is as above.
The target in assay [9] is HLA-A*30:01. The assay is described as above.
Assay [10] deals with HLA-B*08:01. Described as above.
Assay [11] concerns the target HLA-B*15:01. Described as above.
Assay [12] deals with HLA-B*35:01. The description is as above.
Assay [13] addresses HLA-A*33:01. Described as above.
Assay [14] deals with HLA-B*54:01. The assay is described as above.
Assay [15] concerns the target HLA-B*07:02. Described as above.
Assay [16] concerns the target HLA-A*11:01. The assay is described as above.
Assay [17] addresses HLA-A*68:02. The description is as above.
For assay [18], the target named is HLA-B*53:01. Described as above.
For assay [19], the target named is HLA-A*03:01. The assay is described as above.
Assay [20] has as its target HLA-A*01:01. Described as above. The settings on record: source organism: Hepacivirus hominis.
Assay [21] has as its target HLA-A*02:06. The assay is described as above.
For assay [22], the target named is HLA-A*31:01. The assay is described as above.
Assay [23] concerns the target HLA-A*02:02. Described as above.
Assay [24] addresses HLA-A*02:01. The assay is described as above.
Assay [25] deals with HLA-A*02:03. The assay is described as above.
Assay [26] addresses HLA-B*51:01. The assay is described as above.
In assay [27] the target is HLA-A*68:01. The assay is described as above.
Assay [28] has as its target HLA-B*18:01. Briefly: IEDB peptide-MHC binding, purified MHC/direct/fluorescence; filed as Kd, often an IC50 or EC50 that approximates it; ≥ and ≤ were set here for values at or beyond the usual limits of such assays. The note with it: source organism: Entamoeba histolytica HM-1:IMSS.
The target in assay [29] is HLA-B*40:01. Described as above. The note with it: source organism: Entamoeba histolytica HM-1:IMSS.
Where [30] appears, read: source organism: SARS coronavirus Tor2.
[31] abbreviates: source organism: Vaccinia virus Copenhagen.
[32] abbreviates: source organism: Mammarenavirus juninense.
Setting [33] is: source organism: Mammarenavirus brazilense.
Setting [34] is: source organism: Vaccinia virus WR.
The mark [35] stands for this setting: source organism: Hepacivirus hominis.

Bounds are passed on as bounds.

This passage reports Kd results from the Immune Epitope Database (IEDB).

For AESHMDADLA, the Kd is 1120 nM in assay [1] (setting [30]); 8.31 nM in assay [2] (setting [30]); at least 48000 nM in assay [3] (setting [30]); 163 nM in assay [4] (setting [30]); 1330 nM in [5] (setting [30]); 63.1 nM in assay [6] (setting [30]).

Consider CLNNSLMSF, for which the Kd in [7] (setting [31]) was 0.768 nM.

On to DELGNILSVY, for which the Kd in assay [1] (setting [32]) is 1210 nM; in [2] (setting [32]) it was at least 70000 nM; in [3] (setting [32]) it was 8.98 nM; in [4] (setting [32]) it was at least 69500 nM; in assay [5] (setting [32]), 7440 nM; in assay [6] (setting [32]) it was 14100 nM.

With EDQGNPIVL, the Kd in [1] (setting [33]) is at least 78100 nM; in [2] (setting [33]) it was 14900 nM; in assay [3] (setting [33]) it was at least 52100 nM; in assay [4] (setting [33]), 4860 nM; in [5] (setting [33]), at least 36600 nM; in assay [6] (setting [33]), at least 24200 nM.

In the case of EEVNIDNSF, the Kd in [7] (setting [34]) was 1200 nM.

As to FELCDNPFF, the Kd in assay [1] (setting [30]) was found to be 58.2 nM; in [2] (setting [30]) it was 17700 nM; in assay [3] (setting [30]) it was 211 nM; in assay [4] (setting [30]), 35.1 nM; in [5] (setting [30]) it was 32.1 nM; in assay [6] (setting [30]), 95.6 nM.

In the case of FEYISDAFSL, the Kd in assay [1] (setting [30]) is 1450 nM; in assay [2] (setting [30]), 6380 nM; in assay [3] (setting [30]), 1800 nM; in [4] (setting [30]), 1.66 nM; in [5] (setting [30]) it was 3210 nM; in assay [6] (setting [30]) it was 838 nM.

FIKNKIHLL: the Kd in assay [8] (setting [34]) was 2810 nM; in assay [9] (setting [34]), 2520 nM; in assay [7] (setting [34]), 6910 nM; in [10] (setting [34]) it was 0.821 nM; in assay [11] (setting [34]), 97.7 nM.

With FMLMETMFF, the Kd in assay [7] (setting [34]) worked out at 0.188 nM.

Turning to FPKNDFVSF, the Kd in assay [8] (setting [34]) is at least 53700 nM; in [9] (setting [34]), 9120 nM; in assay [7] (setting [34]), 4.22 nM; in [10] (setting [34]) it was 15.5 nM; in [11] (setting [34]), 10.4 nM.

Consider GEENFSSRMY, for which the Kd worked out at 68.3 nM in assay [1] (setting [30]); 3210 nM in assay [2] (setting [30]); 3940 nM in [3] (setting [30]); 8440 nM in assay [4] (setting [30]); 58.1 nM in assay [5] (setting [30]); 14200 nM in assay [6] (setting [30]).

HSKKKCDDL: the Kd was at least 77400 nM in [12] (setting [35]); at least 77700 nM in assay [13] (setting [35]); at least 78100 nM in assay [14] (setting [35]); at least 66800 nM in [15] (setting [35]); at least 77900 nM in assay [16] (setting [35]); at least 69800 nM in [17] (setting [35]). For the same sequence, the Kd is at least 57000 nM in assay [18] (setting [35]); at least 78000 nM in assay [19] (setting [35]); at least 53900 nM in [20]; at least 57700 nM in [10] (setting [35]); at least 77100 nM in assay [21] (setting [35]); at least 77900 nM in [22] (setting [35]). The Kd in assay [23] (setting [35]) is at least 70000 nM; in assay [24] (setting [35]) it was at least 69400 nM; in assay [25] (setting [35]) it was at least 70400 nM; in assay [26] (setting [35]), at least 51900 nM; in assay [27] (setting [35]) it was at least 77700 nM.

Take IKFAAGIII: the Kd in [7] (setting [34]) turned out to be 16 nM.

In the case of IMALIVSIF, the Kd in [7] (source organism: Vaccinia virus) was found to be 4.53 nM.

For the sequence KIGMFNLTF, the Kd in [8] (setting [34]) is 0.268 nM; in [9] (setting [34]), 4760 nM; in assay [7] (setting [34]), 12.6 nM; in [10] (setting [34]), at least 36100 nM; in assay [11] (setting [34]) it was 0.209 nM.

For the sequence KKVIGFVSI, in assay [7] (setting [34]), the Kd came out at 7.49 nM.

Consider KTSSFKISK, for which the Kd in assay [8] (setting [34]) is at least 23000 nM; in [9] (setting [34]), 88.1 nM; in assay [7] (setting [34]), at least 68000 nM; in assay [10] (setting [34]), at least 31400 nM; in assay [11] (setting [34]), at least 62200 nM.

As to LKSVETSSL, in assay [7] (setting [31]), the Kd came to 3.76 nM.

LPVIFLSIF: in assay [7] (setting [34]), the Kd turned out to be 162 nM.

Turning to MMSMYGKAF, the figures for the Kd in [7] (setting [34]) and in assay [11] (setting [34]) were 2.61 nM and 3.18 nM, respectively.

NLLCHIYSL: the dissociation constant (Kd) was found to be 231 nM in [8] (setting [34]); 56.3 nM in [9] (setting [34]); 2030 nM in [7] (setting [34]); 0.307 nM in assay [10] (setting [34]); 1930 nM in assay [11] (setting [34]).

With RIRRFRRPM, the Kd in [8] (setting [34]) was determined as 769 nM; in assay [9] (setting [34]) it was 4.4 nM; in [7] (setting [34]), 30.2 nM; in assay [10] (setting [34]), 8.94 nM; in [11] (setting [34]), 36.2 nM.

Take RLYSEGLSI: the dissociation constant Kd in assay [7] (setting [34]) turned out to be 31.9 nM; in assay [11] (setting [34]), 4.53 nM.

In the case of SLTIKDSSNK, the Kd in [12] (setting [34]) is at least 46500 nM; in [13] (setting [34]), at least 70000 nM; in assay [14] (setting [34]), at least 69900 nM; in assay [15] (setting [34]), at least 52300 nM; in assay [16] (setting [34]), at least 25300 nM; in assay [17] (setting [34]) it was at least 69800 nM. Also, the Kd is at least 69900 nM in [18] (setting [34]); 9780 nM in assay [19] (setting [34]); at least 69800 nM in assay [21] (setting [34]); at least 70000 nM in [22] (setting [34]); at least 70000 nM in assay [23] (setting [34]); at least 69400 nM in assay [24] (setting [34]). Besides, the Kd in assay [25] (setting [34]) is at least 70400 nM; in [26] (setting [34]), at least 69600 nM; in [27] (setting [34]), at least 52700 nM.

For SQYLSRVSL, in assay [7] (setting [34]), the Kd came out at 0.235 nM.

Take SSRRYRCSF: the figures for the Kd in [7] (setting [34]), in assay [10] (setting [34]) and in assay [11] (setting [34]) were 54.5 nM, 11.5 nM and 682 nM, respectively.

Consider SSVREVFYF, for which the Kd in [7] (setting [34]) turned out to be 123 nM.

On to YEYVLIGIL, for which the dissociation constant (Kd) was 4 nM in [28] and at most 1 nM in assay [29].

In the case of YTLYKKLSF, the Kd in [8] (setting [31]) is 194 nM; in assay [9] (setting [31]) it was 22.6 nM; in assay [7] (setting [31]) it was 38.2 nM; in [10] (setting [31]), 16.3 nM; in assay [11] (setting [31]) it was 14.3 nM.
